Among the data in patent US20080026982A1 are Inhibition HIV-1 (%) (viral inhibition, HDV-EGFP single-cycle infectivity in the presence of Vif), GFP-positive cells (relative to wild type APOBEC3G with pcHelp set to 100%) and Inhibition HIV-2 (%) (viral inhibition, HDV-EGFP single-cycle infectivity in the presence of Vif) values, retold here.

What all share (assay): cell-based or functional assay
Assay [1] has as its target APOBEC3G mutant P129F, C-terminal myc-tagged (human) (UniProt Q9HC16).
Assay [2] concerns the target APOBEC3G mutant P129D, C-terminal myc-tagged, expressed from pAPO3G-P129D (human) (UniProt Q9HC16).
In assay [3] the target is APOBEC3G mutant D128K, C-terminal myc-tagged (human).
Assay [4] addresses APOBEC3G mutant P129A, C-terminal myc-tagged (human) (UniProt Q9HC16).

In the case of “HIV-1 Vif (virion infectivity factor), expressed from pC-Help”, the Inhibition HIV-1 (%) (viral inhibition, HDV-EGFP single-cycle infectivity in the presence of Vif) in assay [1] stood at 79%; in assay [2], 94%; in assay [3] it was 83%; in assay [4], 68%. The substance further showed a GFP-positive cells (relative to wild type APOBEC3G with pcHelp set to 100%) in assay [2] below 10%.

With HIV-2 Vif (HIV-2Rod), the Inhibition HIV-2 (%) (viral inhibition, HDV-EGFP single-cycle infectivity in the presence of Vif) worked out at 81% in assay [1], 95% in assay [2], 42% in assay [3] and 77% in assay [4]. The GFP-positive cells (relative to wild type APOBEC3G with pcHelp set to 100%) in assay [2] is below 10%.
